From article PMC12316308, “Interactions of substrates and phosphinyl containing inhibitors with bacterial and human zinc proteases” (PLOS One, 2025)
The star is where a group is joined. Dnp = O=[N+]([O-])c1ccc(*)c([N+](=O)[O-])c1; Mca = COc1ccc2c(CC(=O)*)cc(=O)oc2c1

What was measured:
thermolysin (TLN) = molecular target: T1, thermolysin (TLN) (Bacillus thermoproteolyticus, UniProt P00800); test: MALDI-TOF MS analysis of ES005 cleavage; format: biochemical; conditions: 50 µM ES005, 10 nM TLN, 5 minutes, 37°C
T1 construct: purchased Calbiochem (San Diego, CA, USA)
Description: MALDI-TOF MS spectra were recorded for samples containing different enzyme and substrate concentrations at various time points using an Autoflex Speed instrument (Bruker Daltonik GmbH, Leipzig, Germany) equipped with a 355-nm nitrogen laser for desorption and ionization. The ionization matrix, HCCA, was dissolved to 10 mg/mL in a standard solvent (50% MeCN, 47.5% MQ-water, and 2.5% TFA) by vigorous vortexing. Prior to the MALDI run, a main buffer (0.1 M Hepes, pH 7.5, 10 mM CaCl2) was used to dilute TLN to stock concentrations of 1000, 100 and 50 nM, ES005–500 µM, and galardin to 10 µM. All stocks solutions were kept on ice. For the 0 min incubation, 1 µL TLN and 1 µL galardin were preincubated at 37°C in 8 µL of the main buffer for 10 min before adding 1 µL of ES005. For all other time points, 1 µL of ES005 was added to tubes containing 8 µL buffer and 1 µL of TLN at different concentrations, followed by incubation at 37°C. At each timepoint (0, 1, 3, 5, 10, 20, 30, 60, 120 min), 1 µL of galardin was added to stop enzyme activity. After the final incubation, 1 µL aliquots from each timepoint were mixed with an equal volume of HCCA and spotted onto a MALDI plate. […] The resulting mass spectra were analysed using flexAnalysis software (v3.3, Bruker).

TLN [1] = molecular target: T2, TLN (Bacillus thermoproteolyticus, UniProt P00800); test: Enzymatic activity against ES001 and ES005; format: biochemical; set-up: purchased Calbiochem (San Diego, CA, USA); conditions: 10 µM substrate, DMSO omitted, n = 4
T2 sequence (P00800 233-548): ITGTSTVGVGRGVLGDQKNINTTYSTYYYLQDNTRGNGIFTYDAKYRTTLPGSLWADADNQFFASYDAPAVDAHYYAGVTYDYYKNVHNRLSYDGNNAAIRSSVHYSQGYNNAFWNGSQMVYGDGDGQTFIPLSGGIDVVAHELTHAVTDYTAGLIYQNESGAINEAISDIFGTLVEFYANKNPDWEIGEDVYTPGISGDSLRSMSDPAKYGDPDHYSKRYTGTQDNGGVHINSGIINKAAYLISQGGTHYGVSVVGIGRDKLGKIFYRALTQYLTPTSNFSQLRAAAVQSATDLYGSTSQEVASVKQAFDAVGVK
Description: (§1) Determination of reaction velocities. The substrate ES001 was used for APMA activated MMP-9 (MMP-9(A)), Mag-Trypsin activated MMP-9 (MMP-9(MT)) and MMP-14, while the substrate ES005 was used for ALN, PLN and TLN. The reaction velocities/initial rates (v) were determined at 37°C, at an excitation wavelength of 320 nm and an emission wavelength of 405 nm with a slit width of 10 nm using either a Perkin Elmer LS 50 Luminescence spectrometer and the FL WinLab Software Package (Perkin Elmer) or a Clario Star micro plate reader (CLARIOstar® BMG LABTECH).
(§2) To compare the activity of these enzymes against ES001 and ES005 assays were conducted using the same assay condition for all enzymes. The differences from the testing of phosphinic compounds described in the Material and Methods section were that DMSO was omitted, and the concentration of both substrates was 10 µM. A Perkin Elmer LS50 Luminescence Spectrometer was used to measure the activity. Reactions were monitor for one minute, and initial reaction velocities were determined from the activity curves. For each enzyme, the reaction with the presumed optimal substrate was performed first at an arbitrary enzyme concentration, followed immediately by the reaction with the alternate substrate using the same enzyme concentration.

ALN [2] = molecular target: T3, ALN (Staphylococcus aureus, UniProt P81177); format: biochemical; set-up: purchased BioCentrum Ltd (Kraków, Poland)
T3 sequence (P81177 209-509): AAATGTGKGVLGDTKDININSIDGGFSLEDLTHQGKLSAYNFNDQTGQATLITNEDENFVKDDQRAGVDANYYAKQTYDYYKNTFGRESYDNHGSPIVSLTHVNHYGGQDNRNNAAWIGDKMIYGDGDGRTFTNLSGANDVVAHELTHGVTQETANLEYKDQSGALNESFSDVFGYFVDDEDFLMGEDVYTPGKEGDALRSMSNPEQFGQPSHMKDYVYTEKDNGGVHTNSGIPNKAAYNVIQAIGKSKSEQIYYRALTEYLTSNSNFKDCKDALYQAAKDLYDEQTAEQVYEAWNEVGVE
Description: as §1, §2

MMP-14 = molecular target: T4, MMP-14 (Homo sapiens, UniProt P50281); test: Enzymatic activity against ES001 and ES005; format: biochemical; conditions: 10 µM substrate, DMSO omitted, n = 4
T4 construct: human MT1-MMP/MMP-14 (catalytic domain); purchased Calbiochem (San Diego, CA, USA)
Description: as §1, §2

MMP-9(MT) = molecular target: T5, MMP-9(MT) (Homo sapiens, UniProt P14780); test: Enzymatic activity against ES001 and ES005; format: biochemical; conditions: 10 µM substrate, DMSO omitted, n = 4
T5 construct: made in house; host or cells: Sf9 and High Five insect cells
T5 sequence (P14780 107-707 limits assumed): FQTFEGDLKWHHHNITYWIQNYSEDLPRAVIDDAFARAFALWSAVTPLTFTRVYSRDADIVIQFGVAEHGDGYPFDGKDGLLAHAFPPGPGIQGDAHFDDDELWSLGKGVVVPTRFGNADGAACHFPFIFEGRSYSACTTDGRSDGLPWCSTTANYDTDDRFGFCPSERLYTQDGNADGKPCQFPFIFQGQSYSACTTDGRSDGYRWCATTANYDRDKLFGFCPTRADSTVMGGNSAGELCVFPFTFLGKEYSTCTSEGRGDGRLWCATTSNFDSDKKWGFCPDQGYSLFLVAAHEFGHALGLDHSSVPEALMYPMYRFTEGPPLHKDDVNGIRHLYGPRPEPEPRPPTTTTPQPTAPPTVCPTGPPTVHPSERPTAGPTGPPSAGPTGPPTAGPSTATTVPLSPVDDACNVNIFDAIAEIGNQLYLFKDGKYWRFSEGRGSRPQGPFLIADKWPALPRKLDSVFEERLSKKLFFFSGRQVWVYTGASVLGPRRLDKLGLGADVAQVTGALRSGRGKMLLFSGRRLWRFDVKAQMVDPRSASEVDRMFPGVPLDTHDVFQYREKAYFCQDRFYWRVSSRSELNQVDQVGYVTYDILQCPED
Description: as §1, §2

MMP-9(A) = molecular target: T6, MMP-9(A) (Homo sapiens, UniProt P14780); test: Enzymatic activity against ES001 and ES005; format: biochemical; conditions: 10 µM substrate, DMSO omitted, n = 4
T6 construct: made in house; host or cells: Sf9 and High Five insect cells
T6 sequence (P14780 107-707 limits assumed): as above
Description: as §1, §2

PLN [3] = molecular target: T7, PLN (Pseudomonas aeruginosa, UniProt P14756); conditions: 1% DMSO, less certain due to substrate quenching above 10 µM; cited from earlier work
T7 sequence (P14756 198-498): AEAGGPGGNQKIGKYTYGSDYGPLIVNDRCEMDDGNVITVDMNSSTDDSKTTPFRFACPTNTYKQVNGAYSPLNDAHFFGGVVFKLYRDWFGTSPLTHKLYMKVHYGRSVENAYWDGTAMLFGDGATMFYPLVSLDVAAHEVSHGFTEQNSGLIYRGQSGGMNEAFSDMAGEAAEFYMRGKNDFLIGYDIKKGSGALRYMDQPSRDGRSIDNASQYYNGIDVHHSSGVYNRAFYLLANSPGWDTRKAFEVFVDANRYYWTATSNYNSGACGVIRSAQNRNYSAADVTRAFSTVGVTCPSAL

ALN [4] = molecular target: T3, ALN; conditions: 1% DMSO, less certain due to substrate quenching above 10 µM; cited from earlier work
PLN [5] = molecular target: T7, PLN; format: biochemical; set-up: purchased Calbiochem (San Diego, CA, USA)
Description: as §1, §2

TLN [6] = molecular target: T2, TLN; conditions: 1% DMSO; cited from earlier work
[7] = 10 µM substrate, DMSO omitted, n = 4

**Q.** For “Mca-Arg-Pro-Pro-Gly-Phe-Ser-Ala-Phe-Lys(Dnp)-OH (Mca-RPPGFSAFK(Dnp)-OH; SMILES COc1ccc2c(CC(=O)N[C@@H](CCCNC(=N)N)C(=O)N3CCC[C@H]3C(=O)N3CCC[C@H]3C(=O)NCC(=O)N[C@@H](Cc3ccccc3)C(=O)N[C@@H](CO)C(=O)N[C@@H](C)C(=O)N[C@@H](Cc3ccccc3)C(=O)N[C@@H](CCCCNc3ccc([N+](=O)[O-])cc3[N+](=O)[O-])C(=O)O)cc(=O)oc2c1) [ES005]”, which “cleavage sites (MALDI-TOF MS)” value (thermolysin (TLN)) is on record?
**A.** Its value is “cleaved at three sites: Gly-Phe (m/z 642), Ser-Ala (m/z 876), and Ala-Phe (m/z 947)”.

**Q.** And the Enzymatic activity (TLN [1])?
**A.** Its Enzymatic activity is 326 ± 36 ΔF/min.

**Q.** What about the “higher activity for ES005 than ES001” value (ALN [2]) of the same substance?
**A.** Its value is roughly 5 fold.

**Q.** And the Enzymatic activity (ALN [2]; [7])?
**A.** Its Enzymatic activity is 354 ± 61 ΔF/min.

**Q.** And the Enzymatic activity (MMP-14)?
**A.** The Enzymatic activity was 8 ± 2 ΔF/min.

**Q.** And the Enzymatic activity (MMP-9(MT))?
**A.** Its Enzymatic activity is 18 ± 8 ΔF/min.

**Q.** What about the Enzymatic activity (MMP-9(A)) of the same substance?
**A.** Its Enzymatic activity is 5.1 ± 0.2 ΔF/min.

**Q.** And the Km (PLN [3])?
**A.** Its Km is 24 ± 8 µM.

**Q.** What about the Km (ALN [4]) of the same substance?
**A.** The Km was 76 ± 7 µM.

**Q.** And the “higher activity for ES005 than ES001” value (PLN [5])?
**A.** Its value is “approximately 15 fold”.

**Q.** What about the Enzymatic activity (PLN [5]; [7]) of the same substance?
**A.** Its Enzymatic activity is 138 ± 4 ΔF/min.

**Q.** What about the Km (TLN [6]) of the same substance?
**A.** Its Km is 6 ± 1 µM.
